Measured values reported in patent US20180237534A1 (Bristol-Myers Squibb, published 2018).

What was measured:
[1] = target: T1, human OX40, membrane-bound (human, UniProt P43489 29-277); assay: FACS on activated primary human CD4+/CD25+ T cells, purified recombinant antibody, APC GMFI
T1 sequence: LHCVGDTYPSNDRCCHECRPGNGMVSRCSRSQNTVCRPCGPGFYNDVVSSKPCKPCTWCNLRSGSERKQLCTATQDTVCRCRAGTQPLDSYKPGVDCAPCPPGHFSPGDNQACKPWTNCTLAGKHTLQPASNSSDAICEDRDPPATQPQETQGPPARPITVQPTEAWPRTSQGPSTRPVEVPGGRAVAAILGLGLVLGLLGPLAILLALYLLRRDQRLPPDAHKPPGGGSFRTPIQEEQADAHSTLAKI
Description: Cells were activated for several days before the binding assay in order to induce OX40 expression. Briefly, PBMCs were cultured for three or four days with magnetic beads coated with anti-human CD3 plus anti-human CD28, in the presence of recombinant human IL-2. On the day of the assay, the beads were removed and the cells stained with a titration of each anti-OX40 antibody. Bound antibodies were detected with a fluorescently conjugated anti-human IgG polyclonal secondary antibody, and the cells were co-stained for CD4 and CD25 to detect activated CD4 T cells. The fluorescence intensity of the staining was measured using a FACSCanto II flow cytometer (Becton Dickinson). The geometric mean fluorescence intensity (GMFI) or median fluorescence intensity (MedFI) of anti-OX40 antibody staining was calculated for the CD4+CD25+ population (FACSDiva software). EC₅₀s for antibody binding were calculated using GraphPad Prism software.

[2] = target: T2, cynomolgus OX40, membrane-bound (cynomolgus monkey, UniProt P43489 29-277 (human entry)); assay: FACS on activated primary cynomolgus CD4+/CD25+ T cells, purified recombinant antibody, APC GMFI
T2 construct: also called cynoOX40-CHO
T2 chain: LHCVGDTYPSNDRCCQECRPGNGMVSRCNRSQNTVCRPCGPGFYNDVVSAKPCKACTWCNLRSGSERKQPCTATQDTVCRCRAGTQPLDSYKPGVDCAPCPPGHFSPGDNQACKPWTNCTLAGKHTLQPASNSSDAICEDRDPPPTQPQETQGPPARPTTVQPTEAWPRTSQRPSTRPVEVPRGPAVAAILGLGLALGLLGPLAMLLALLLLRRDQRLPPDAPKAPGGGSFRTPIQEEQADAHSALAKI
Description: Briefly, cells were activated for several days before the binding assay in order to induce OX40 expression. Total leukocytes were isolated from cynomolgus macaque peripheral blood by lysis of red blood cells using an ammonium chloride buffer. The leukocytes were then cultured for four to five days with in flasks pre-coated with anti-human CD3 plus anti-human CD28 antibodies that cross-react with cynomolgus macaque, in the presence of recombinant human IL-2, in order to expand and activate T cells. On the day of the assay, the cells were harvested and stained with a titration of each anti-OX40 antibody. Bound antibodies were detected with a fluorescently conjugated anti-human IgG polyclonal secondary antibody, and the cells were co-stained for CD4 and CD25 to detect activated CD4 T cells. The fluorescence intensity of the staining was measured using a FACSCanto II flow cytometer (Becton Dickinson). The geometric mean fluorescence intensity (GMFI) or median fluorescence intensity (MedFI) of anti-OX40 antibody staining was calculated for the CD4+CD25+ population (FACSDiva software). Dose-response curves were generated and EC50s for antibody binding were calculated using GraphPad Prism software.
The same experiment was performed with anti-OX40 antibodies with variable region substitutions.

B1: OX40.6 (antibody, human IgG1, kappa, V domains shown)
VH: EVQLVQSGGGLVQPGGSLRLSCAGSGFTFSNYAMYWVRQAPGKGLEWVSAIGIGGDTFYTDSVKGRFTISRDNAKNSLSLQMNSLRAEDTAVYYCARMGTGYFFDYWGQGTLVTVSS
VL: EIVLTQSPATLSLSPGERATLSCRASQSVSSYLAWYQQKPGQAPRLLIYDASNRATGIPARFSGSGSGTDFTLTISSLEPEDFAVYYCQQRSNWPLTFGPGTKVDIKR
notes: g1f; 23H3 with VH-H13Q/M87T
- EC50 (read off the curve) [1]: ~0.1 nM
- EC50 (read off the curve) [2]: ~0.1 nM
